Literature values, collected in patent US20200102349A1, “PEPTIDE REAGENTS AND METHODS FOR DETECTION AND TARGETING OF DYSPLASIA, EARLY CANCER AND CANCER” (THE REGENTS OF THE UNIVERSITY OF MICHIGAN, priority 2014, published 2020).

Test system: mouse xenograft tumor that overexpressesed EGFR
Conditions: whole body fluorescence imaging

B1: Human recombinant EGF: Human recombinant EGF labeled with IRDye 800 CW (NHS ester) (protein, UniProt P01133 23-1207, looked up)
Pro-epidermal growth factor: PQHWSCPEGTLAGNGNSTCVGPAPFLIFSHGNSIFRIDTEGTNYEQLVVDAGVSVIMDFHYNEKRIYWVDLERQLLQRVFLNGSRQERVCNIEKNVSGMAINWINEEVIWSNQQEGIITVTDMKGNNSHILLSALKYPANVAVDPVERFIFWSSEVAGSLYRADLDGVGVKALLETSEKITAVSLDVLDKRLFWIQYNREGSNSLICSCDYDGGSVHISKHPTQHNLFAMSLFGDRIFYSTWKMKTIWIANKHTGKDMVRINLHSSFVPLGELKVVHPLAQPKAEDDTWEPEQKLCKLRKGNCSSTVCGQDLQSHLCMCAEGYALSRDRKYCEDVNECAFWNHGCTLGCKNTPGSYYCTCPVGFVLLPDGKRCHQLVSCPRNVSECSHDCVLTSEGPLCFCPEGSVLERDGKTCSGCSSPDNGGCSQLCVPLSPVSWECDCFPGYDLQLDEKSCAASGPQPFLLFANSQDIRHMHFDGTDYGTLLSQQMGMVYALDHDPVENKIYFAHTALKWIERANMDGSQRERLIEEGVDVPEGLAVDWIGRRFYWTDRGKSLIGRSDLNGKRSKIITKENISQPRGIAVHPMAKRLFWTDTGINPRIESSSLQGLGRLVIASSDLIWPSGITIDFLTDKLYWCDAKQSVIEMANLDGSKRRRLTQNDVGHPFAVAVFEDYVWFSDWAMPSVMRVNKRTGKDRVRLQGSMLKPSSLVVVHPLAKPGADPCLYQNGGCEHICKKRLGTAWCSCREGFMKASDGKTCLALDGHQLLAGGEVDLKNQVTPLDILSKTRVSEDNITESQHMLVAEIMVSDQDDCAPVGCSMYARCISEGEDATCQCLKGFAGDGKLCSDIDECEMGVPVCPPASSKCINTEGGYVCRCSEGYQGDGIHCLDIDECQLGEHSCGENASCTNTEGGYTCMCAGRLSEPGLICPDSTPPPHLREDDHHYSVRNSDSECPLSHDGYCLHDGVCMYIEALDKYACNCVVGYIGERCQYRDLKWWELRHAGHGQQQKVIVVAVCVVVLVMLLLLSLWGAHYYRTQKLLSKNPKNPYEESSRDVRSRRPADTEDGMSSCPQPWFVVIKEHQDLKNGGQPVAGEDGQAADGSMQPTSWRQEPQLCGMGTEQGCWIPVSSDKGSCPQVMERSFHMPSYGTQTLEGGVEKPHSLLSANPLWQQRALDPPHQMELTQ
modifications: Pro-epidermal growth factor IRDye 800CW label
For B1, the “time of peak signal after injection” value is listed as 2 days.
